Results on 2 sequences are retold here after publication PMC10966536.

In general, Kd refers to the free concentration of one partner at which half of the binding sites on the other are occupied at equilibrium, for simple one-to-one binding. High values mean a looser complex, low ones a tighter complex.

This data set has as its system NmPAL (PAS-ANTAR-LOV photoreceptor) (Nakamurella multipartita). As to the kind of experiment: fluorescence anisotropy. As to conditions: FA: 4 nM RNA, 12 mM HEPES/HCl pH 7.7, 135 mM KCl, 10 mM NaCl, 1 mM MgCl2, 10% w/v glycerol, 100 ug/mL BSA, dark, or after 60 s blue light (465 nm), temperature …. Background: In fluorescence polarisation assays a small probe gives low polarisation when free and higher when bound to something large.

The sequence ACCUUCGGUUCAGCUGCGAGCCG [58.M21, TAMRA] had a Kd (blue light, text says 83-fold reduced) of 250 nM.

Turning to “ACCUUCGGUUCAGCAGCGAGCCG [58 (motif 3), TAMRA]”, the equilibrium dissociation constant (Kd) runs as follows: (blue light, two-site fit, high-affinity site (second transition micromolar)) 3.5 nM; (darkness, text elsewhere calls this micromolar binding) over 3000 nM.
